Measured values from paper PMC11009412, “Pathogenic mutations of human phosphorylation sites affect protein–protein interactions” (Nature Communications, 2024).

Legend:
14-3-3 epsilon (YWHAE) [1] = target: 14-3-3 epsilon (YWHAE) (UniProt P62258); experiment: ITC; PEAQ-ITC, 18 °C, 400 µM peptide in the syringe, 25 µM 14-3-3ε in the reaction chamber; 20 mM HEPES pH 7.0, 150 mM NaCl, 2 mM DTT
[2] = target: 14-3-3 beta/alpha (YWHAB) (UniProt P31946); experiment: PRISMA alanine-scan pull-down, LFQ MS; details: reference: unphosphorylated wild-type peptide; sites S102
14-3-3 epsilon (YWHAE) [3] = target: 14-3-3 epsilon (YWHAE) (UniProt P62258); experiment: PRISMA alanine-scan pull-down, LFQ MS; details: reference: unphosphorylated wild-type peptide; sites S102
14-3-3 eta (YWHAH) = 14-3-3 eta (YWHAH) (UniProt Q04917); experiment: PRISMA alanine-scan pull-down, LFQ MS; details: reference: unphosphorylated wild-type peptide; sites S102
14-3-3 gamma = 14-3-3 gamma (UniProt P61981); experiment: PRISMA alanine-scan pull-down, LFQ MS; details: reference: unphosphorylated wild-type peptide; sites S102
14-3-3 theta (YWHAQ) = 14-3-3 theta (YWHAQ) (UniProt P27348); experiment: PRISMA alanine-scan pull-down, LFQ MS; details: reference: unphosphorylated wild-type peptide; sites S102
14-3-3 zeta (YWHAZ) = 14-3-3 zeta (YWHAZ) (UniProt P63104); experiment: PRISMA alanine-scan pull-down, LFQ MS; details: reference: unphosphorylated wild-type peptide; sites S102
GRB2 = GRB2 (UniProt P62993); experiment: PRISMA peptide-membrane pull-down, SILAC MS; details: reference: unphosphorylated wild-type peptide; sites Y1092
PLCG1 = PLCG1 (UniProt P19174); experiment: PRISMA peptide-membrane pull-down, SILAC MS; details: reference: unphosphorylated wild-type peptide; sites Y1092
STAT3 = STAT3 (UniProt P40763); experiment: PRISMA peptide-membrane pull-down, SILAC MS; details: reference: unphosphorylated wild-type peptide; sites Y1092

Substance: GATAD1 phosphopeptide 95-LRNTKYKpSAPAAEKK-109
- Kd (14-3-3 epsilon (YWHAE) [1]): 3.4 µM

Substance: GATAD1 (from UniProt Q8WUU5) pS102 peptide
- binding against the reference [2]: stronger
- binding against the reference (14-3-3 epsilon (YWHAE) [3]): stronger
- binding against the reference (14-3-3 eta (YWHAH)): stronger
- binding against the reference (14-3-3 gamma): stronger
- binding against the reference (14-3-3 theta (YWHAQ)): stronger
- binding against the reference (14-3-3 zeta (YWHAZ)): stronger

Substance: EGFR (from UniProt P00533) pTyr1092 peptide
- other: SILAC ratio phos/wt (GRB2): > 20
- binding against the reference (PLCG1): stronger
- binding against the reference (STAT3): stronger
